Laboratory results from publication doi:10.1101/2024.09.20.614047, “The Role of ATP Synthase Subunit e (ATP5I) in Mediating the Metabolic and Antiproliferative Effects of Metformin” (bioRxiv, 2024).

Molecular target: the molecule itself
Experiment: SEC; gel filtration of purified rATP5I (Superose 12 10/300 GL in legend B; calibrated Superose 6 10/300 GL in legend C); oligomeric state of the protein in solution

B1: recombinant purified ATP5I (ATP synthase subunit e), N-terminal 6x-His-tagged (natural protein, human, UniProt P56385 1-69, looked up)
chain: MVPPVQVSPLIKLGRYSALFLGVAYGATRYNYLKPRAEEERRIAAEEKKKQDELKRIARELAEDDSILK
notes: No cleavage of the His tag is described; the gel filtration legend names the Nter-6×His-ATP5I construct; also called rATP5I; recombinant ATP5I; source: Rosetta E. coli BL21, purified (solubilised in 6 M guanidine, HisTrap FF, desalting column, concentrated); not shown: 6x-His, N-terminal, kept
**Q.** Which “stoichiometry N” value does the source give for B1 here?
**A.** Its value is ~10.
